This note sets out measurements from publication PMC8637566, “ERK signaling controls productive HIF‐1 binding to chromatin and cancer cell adaptation to hypoxia through HIF‐1α interaction with NPM1” (Molecular Oncology, 2021).

Assay [1] addresses NPM1 (nucleophosmin, B23) (UniProt P06748). As to the kind of experiment: anti-FLAG IP of transduced peptide, NPM1 blot. The conditions noted are these: reference: TAT-ETD-FLAG WT; sites S641,S643.
Assay [2] concerns the target T1, GST‐NPM1 B23.1 (UniProt P06748 1-294).
T1 construct: NPM1 isoform B23.1, the most abundant form, with the C-terminal aromatic stretch; also called GST‐B23.1; B23.1 form of recombinant NPM1; source: E. coli BL21 (RIL), purified (GSH‐agarose)
As to the kind of experiment: pull-down; GST-NPM1 forms immobilised on GSH-agarose as baits, bacterially expressed and purified HIF-1α(348–826)SE or TAT-ETD-SE-FLAG peptide as prey; immunoblot with anti-HIF-1α or anti-Flag. As to conditions: both partners purified.

T1 sequence (P06748 whole entry, canonical isoform): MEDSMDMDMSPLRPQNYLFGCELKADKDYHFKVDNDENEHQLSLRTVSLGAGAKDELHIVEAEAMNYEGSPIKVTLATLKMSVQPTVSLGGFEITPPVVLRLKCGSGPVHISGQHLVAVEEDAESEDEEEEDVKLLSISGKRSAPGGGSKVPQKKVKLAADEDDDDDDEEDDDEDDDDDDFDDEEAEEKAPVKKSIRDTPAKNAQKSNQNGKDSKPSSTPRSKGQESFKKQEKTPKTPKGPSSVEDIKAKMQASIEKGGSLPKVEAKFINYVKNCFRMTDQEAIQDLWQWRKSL

Consider “HIF‐1α ETD, 616-658 (from UniProt Q16665) TAT-ETD-SA-FLAG”, for which the “binding against the reference” value in assay [1] is “lost”.

B1: TAT‐ETD(SE)‐FLAG peptide (peptide, UniProt Q16665 616-658, looked up)
chain: TTTATTDELKTVTKDRMEDIKILIAEPSPTHIHKETTSATSSP
notes: HIF-1α ERK targeted domain (ETD), residues 616–658, Ser641 to Glu; source: E. coli, purified
B1: the binding result in assay [2] is recorded as “binds”.
